Measurements taken from patent US20080274114A1 (APPLIED MOLECULAR EVOLUTION, published 2008).

Key:
[1] = target: T1, soluble EGFR (sEGFR), amino acids 1-619 of mature human EGFR with (Gly)4Ser linker and (His)6 tag (human, UniProt P00533 25-643, biotinylated with Sulfo-NHS-LC-Biotin in the filter lift and the capture ELISA); assay: capture filter lift and capture ELISA, biotinylated sEGFR
T1 construct: range 1-619; Expressed in CHO-K1 cells; also called biotinylated sEGFR; B-sEGFR
Experimental: Briefly, a filter is coated with a capture reagent (goat anti-human kappa chain antibody), then the coated filter is placed on a plate with phage plaques, from phage which are expressing Fabs. The filter is incubated with the plaques, then the filter is incubated with biotinylated sEGFR, and bound biotinylated sEGFR is detected by binding of Neutravidin-AP and incubation with the detectable alkaline phosphatase substrate.
The filter is submerged for 15 min. The filter is washed three times in PBS. The filter is blocked in 1% BSA in PBS for 1 hour. The filter is washed three times in PBS. The filter is air dried for 10 min. The filter is carefully laid onto phage plate and incubated overnight at 22° C. The filter is carefully lifted off and washed briefly in PBS. The filter is incubated with Biotinylated antigen at 1/1000 dilution into 3% dry milk, PBS, 0.05% Tween 20 for 1 hour at room temperature. The filter is vacuum washed with PBS, 0.05% Tween 20 three times. The filter is incubated with Neutravidin-AP 1/1000 in PBS, 0.05% Tween 20 for 30 min. at room temperature. The filter is vacuum washed with PBS, 0.05% Tween 20 three times. The filter is developed in 10 mls AP substrate (Nitro-blue tetrazolium, 5-Bromo-4-chloro-indolyl phosphate, Pierce, Rockford, Ill.). Plaques are selected based on blue color intensity.
Capture ELISA is used as an assay to detect Fabs which bind sEGFR as follows. […] The wells are washed 3 times with PBS-Tween 20 (0.05%). the wells are blocked with 50 μL/well 1% BSA in PBS-Tween for 1 hour at RT. The wells are washed 3 times with PBS-Tween. […] The plate is incubated at RT for 2 hours. The plate is wash 3 times with PBS-Tween. 50 μL/well biotinylated-sEGFR diluted 1/1000 in PBS-Tween are added and the plate is incubated at RT for 1 hour. The plate is washed 3 times with PBS-Tween.

[2] = target: T1, soluble EGFR (sEGFR), amino acids 1-619 …; assay: capture ELISA: binder captured on goat anti-human kappa at varied concentration, biotinylated sEGFR (1/1000) detected with Neutravidin-AP, OD405
Experimental: Capture ELISA is used as an assay to detect Fabs which bind sEGFR as follows. […] The wells are washed 3 times with PBS-Tween 20 (0.05%). the wells are blocked with 50 μL/well 1% BSA in PBS-Tween for 1 hour at RT. The wells are washed 3 times with PBS-Tween. […] The plate is incubated at RT for 2 hours. The plate is wash 3 times with PBS-Tween. 50 μL/well biotinylated-sEGFR diluted 1/1000 in PBS-Tween are added and the plate is incubated at RT for 1 hour. The plate is washed 3 times with PBS-Tween. 50 μL/well Neutravidin-Alkaline Phosphatase (Neutravidin-AP; Pierce, Rockford, Ill.) diluted 1/1000 in PBS-Tween are added and incubated for 30 min. at RT. The plate is washed 3 times with PBS-Tween. 150 μL/well pNPP substrate (Sigma) is added and incubated at 37° C. until color develops.

[3] = target: T1, soluble EGFR (sEGFR), amino acids 1-619 …; assay: KinExA, calculated as Kd x kon
Experimental: (§1) Binding affinity measurements for full-length monoclonal antibodies of the invention are determined using a Sapidyne KINEXA assay. NHS-activated fast-flow sepharose beads (GE Healthcare) are pre-coated with antigen (50 μg anti-EGFR antibody per ml of beads) and blocked with 10 mg/ml BSA in 1 M Tris-HCl, pH 8.0. […] To determine the free antibody present at equilibrium, each sample is passed through the sEGFR-coated beads. The amount of bead-bound antibody is then quantified by passing a solution of fluorescent (Cy5) labeled goat anti-human Fc antibody (Jackson Immuno Research) diluted 1:4000 in running buffer over the beads. The measured fluorescence signal is proportional to the concentration of free antibody at equilibrium. Each concentration of sEGFR is measured in duplicate. The equilibrium dissociation constant (KD) is obtained from non-linear regression of the competition curves using a multiple-curve, one-site homogeneous binding model (KINEXA software).
(§2) The association rate constant (kₒₙ) for sEGFR binding is also determined using a Sapidyne KINEXA assay. Two pM antibody is mixed with 20 pM sEGFR using the same conditions as described above. At various times, samples are probed for free antibody using the conditions described above for equilibrium binding, and then the resulting time dependence is fit using the KINEXA software to determine the association rate (kₒₙ). The dissociation rate constant (koff) is calculated using the expression koff=Kd×kₒₙ.

[4] = target: T1, soluble EGFR (sEGFR), amino acids 1-619 …; assay: KinExA, equilibrium, full-length antibody with sEGFR in solution
Experimental: as §1

[5] = target: T1, soluble EGFR (sEGFR), amino acids 1-619 …; assay: KinExA, full-length antibody with sEGFR in solution
Experimental: as §1, §2

| Binder | binding result [1] | EC50 (read off the curve) [2] [µg/mL] | koff [3] [s⁻¹] | Kd [4] [pM] | kon [5] [M⁻¹ s⁻¹] |
| --- | --- | --- | --- | --- | --- |
| Fab 4.14 (Fab, V domains shown, Fab) VH: QVQLQESGPGLVKPSETLSLTCTVSGFSLTNWDVHWIRQPPGKGLEWIGNIWSGGNTDYNTPFTSRVTISVDTSKNQFSLKLSSVTAADTAVYYCARALDYYDYDYAYWGQGTMVTVSS VL: EIVLTQSPDFQSVTPKEKVTITCRASYSIGTNIHWYQQKPDQSPKLLIKYASESISGVPSRFSGSGSGTDFTLTINSLEAEDAATYYCQQNNDWPTTFGGGTKVEIK | binds |  |  |  |  |
| Fab 4.21 (Fab, V domains shown, Fab) VH: QVQLQESGPGLVKPSETLSLTCTVSGFSLTNWDVHWIRQPPGKGLEWIGVIWSGGNTDYNTPFTSRVTISVDTSKNQFSLKLSSVTAADTAVYYCARALDYYDYDFAYWGQGTMVTVSS VL: EIVLTQSPDFQSVTPKEKVTITCRASYSIGTNIHWYQQKPDQSPKLLIKYASESISGVPSRFSGSGSGTDFTLTINSLEAEDAATYYCQQNNDWPTSFGGGTKVEIK |  | ~0.02 |  |  |  |
| full-length monoclonal antibody VH2.69 (antibody, V domains shown, Full-length antibody with human Fc) VH: QVTLKESGPVLVKPTETLTLTCTVSGFSLSNWDVHWIRQPPGKALEWLAVIWSGGNTDYNTPFASRLTISKDTSKSQVVLTMTNMDPVDTATYYCARALDYYDYNFAYWGQGTMVTVSS VL: EIVLTQSPDFQSVTPKEKVTITCRASYSIGTNIHWYQQKPDQSPKLLIKYASESISGVPSRFSGSGSGTDFTLTINSLEAEDAATYYCQQNNNWPTSFGGGTKVEIK |  |  | 6.51e-06 | 0.68 | 9.64e+06 |
| Fab 2.38 (Fab, V domains shown, Fab) VH: QVTLKESGPVLVKPTETLTLTCTVSGFSLSNWGVHWIRQPPGKALEWLAVIWSGGNTDYNTPFDSRLTISKDTSKSQVVLTMTNMDPVDTATYYCARALDYYDYDFAYWGQGTMVTVSS VL: EIVLTQSPDFQSVTPKEKVTITCRASYSIGTNIHWYQQKPDQSPKLLIKYASESISGVPSRFSGSGSGTDFTLTINSLEAEDAATYYCQQNNEWPTSFGGGTKVEIK | binds |  |  |  |  |
| Fab 2.II.3 (Fab, V domains shown, Fab; also called 2.11.3) VH: QVTLKESGPVLVKPTETLTLTCTVSGFSLSNWDVHWIRQPPGKALEWLAVIWSGGNTDYNTPFTSRLTISKDTSKSQVVLTMTNMDPVDTATYYCARALDYYDYDFAYWGQGTMVTVSS VL: EIVLTQSPDFQSVTPKEKVTITCRASYSIGTNIHWYQQKPDQSPKLLIKYASESISGVPSRFSGSGSGTDFTLTINSLEAEDAATYYCQQNNDWPTTFGGGTKVEIK | binds |  |  |  |  |

Second part, the binder after the results:

| binding result [1] | EC50 (read off the curve) [2] [µg/mL] | koff [3] [s⁻¹] | Kd [4] [pM] | kon [5] [M⁻¹ s⁻¹] | Binder |
| --- | --- | --- | --- | --- | --- |
|  |  | 1.75e-07 | 0.012 | 1.46e+07 | full-length monoclonal antibody VH4.15 (antibody, V domains shown, Full-length antibody with human Fc) VH: QVQLQESGPGLVKPSETLSLTCTVSGFSLTNYGVHWIRQPPGKGLEWIGNIWSGGNTDYNTPFTSRVTISVDTSKNQFSLKLSSVTAADTAVYYCARALDYYDYDYAYWGQGTMVTVSS VL: EIVLTQSPDFQSVTPKEKVTITCRASYSIGTNIHWYQQKPDQSPKLLIKYASESISGVPSRFSGSGSGTDFTLTINSLEAEDAATYYCQQNNEWPTSFGGGTKVEIK |
|  |  | 2.02e-06 | 0.188 | 1.07e+07 | full-length monoclonal antibody VH4.21 (antibody, V domains shown, Full-length antibody with human Fc) VH: QVQLQESGPGLVKPSETLSLTCTVSGFSLTNWDVHWIRQPPGKGLEWIGVIWSGGNTDYNTPFTSRVTISVDTSKNQFSLKLSSVTAADTAVYYCARALDYYDYDFAYWGQGTMVTVSS VL: EIVLTQSPDFQSVTPKEKVTITCRASYSIGTNIHWYQQKPDQSPKLLIKYASESISGVPSRFSGSGSGTDFTLTINSLEAEDAATYYCQQNNDWPTSFGGGTKVEIK |
|  |  |  | 0.215 |  | full-length monoclonal antibody VH2.87 (antibody, V domains shown, Full-length antibody with human Fc) VH: QVTLKESGPVLVKPTETLTLTCTVSGFSLSNWDVHWIRQPPGKALEWLAVIWSGGATDYNTPFNSRLTISKDTSKSQVVLTMTNMDPVDTATYYCARALDYYDYNFAYWGQGTMVTVSS VL: EIVLTQSPDFQSVTPKEKVTITCRASYSIGTNIHWYQQKPDQSPKLLIKYASESISGVPSRFSGSGSGTDFTLTINSLEAEDAATYYCQQNNNWPTTFGGGTKVEIK |
